Reference: publication PMC6326798

T1: GST-thCENP-K^FL (full-length T. terrestris CENP-K with N-terminal GST)
T1 chain: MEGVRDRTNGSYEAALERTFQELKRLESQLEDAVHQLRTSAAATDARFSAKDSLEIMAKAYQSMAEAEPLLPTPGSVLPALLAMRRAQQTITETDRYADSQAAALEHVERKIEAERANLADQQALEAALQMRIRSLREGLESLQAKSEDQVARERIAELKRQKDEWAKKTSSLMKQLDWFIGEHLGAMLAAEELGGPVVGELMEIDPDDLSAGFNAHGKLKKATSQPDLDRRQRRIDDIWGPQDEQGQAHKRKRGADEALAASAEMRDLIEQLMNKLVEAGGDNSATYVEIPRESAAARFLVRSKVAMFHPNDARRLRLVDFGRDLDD

T2: GST-thCENP-K^ΔN75
T2 chain: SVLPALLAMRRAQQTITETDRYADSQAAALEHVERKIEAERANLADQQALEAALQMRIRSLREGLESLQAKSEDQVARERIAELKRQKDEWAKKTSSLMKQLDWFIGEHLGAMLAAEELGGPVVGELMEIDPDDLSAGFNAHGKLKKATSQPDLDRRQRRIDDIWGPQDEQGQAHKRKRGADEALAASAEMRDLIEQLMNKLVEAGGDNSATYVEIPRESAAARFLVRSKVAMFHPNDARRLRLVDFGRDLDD

T3: GST-ctCENP-I^NT
T3 chain: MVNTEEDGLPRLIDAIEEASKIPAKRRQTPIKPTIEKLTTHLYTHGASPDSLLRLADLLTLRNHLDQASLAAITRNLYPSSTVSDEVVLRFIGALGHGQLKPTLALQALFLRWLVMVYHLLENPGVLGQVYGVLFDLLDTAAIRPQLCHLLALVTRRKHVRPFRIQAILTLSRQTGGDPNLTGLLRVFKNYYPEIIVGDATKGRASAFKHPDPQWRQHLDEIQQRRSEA


What was measured:
[1] = target: C. thermophilum CENP-I residues 1-229 (ctCENP-I^NT), untagged; experiment: GST pull-down; conditions: in the presence of thCENP-K; parent: est. 1.0; read off a plot
[2] = target: thCENP-H/K complex (full-length thCENP-H with full-length thCENP-K) (Thielavia terrestris); experiment: AUC; sedimentation velocity, 4°C, 42 000 rpm, PBS; continuous c(s) model in SEDFIT
[3] = target: full-length T. terrestris CENP-K (thCENP-K) (Thielavia terrestris); experiment: as above
[4] = target: T1, GST-thCENP-K^FL (full-length T. …); experiment: GST pull-down; conditions: chain shown with the change;; parent: est. 1.0; read off a plot
GST-thCENP-K^ΔN75 = target: T2, GST-thCENP-K^ΔN75; experiment: GST pull-down; conditions: chain shown with the change;; parent: est. 1.0; read off a plot
GST-ctCENP-I^NT = target: T3, GST-ctCENP-I^NT; experiment: GST pull-down; conditions: chain shown with the change;; parent: est. 1.0; read off a plot

Row | Molecule | ratio to parent [4] | ratio to parent (GST-thCENP-K^ΔN75) | ratio to parent (GST-ctCENP-I^NT) | further results
1 | GST-thCENP-H WT I205A; L219A |  |  |  | ratio to parent [1]: 0.63
2 | GST-thCENP-H WT R220E; L224A |  |  |  | ratio to parent [1]: 0.2
3 | C. thermophilum CENP-I residues 1-229 (ctCENP-I^NT), untagged (domain or fragment) |  |  |  | stoichiometry N [2]: 1
4 | full-length T. terrestris CENP-H (thCENP-H) (natural protein) |  |  |  | stoichiometry N [3]: 1
5 | full-length T. terrestris CENP-H (thCENP-H) L219A (protein) MAATASTATPTPLPHFTEREASVLALYDRLRQLQLELALLTSQRSHGVIETSASRRAENDLAVDEARLLEARATLDLRDSVVENVVTLQPILNAVHHATHASPLERDLLPYTEQRDATATKVASLCADLDSAWGRLAELETESLRATQRNMELASEVLRLAAGTNDKTPSQLEGGRLEMELAGHEAEMKSNRRRWRIMKGAASAIVAGSGIDWVRDERARDLVLDLPD | 0.89 | 0.68 |  | 
6 | full-length T. terrestris CENP-H (thCENP-H) I211A; L219A (protein) MAATASTATPTPLPHFTEREASVLALYDRLRQLQLELALLTSQRSHGVIETSASRRAENDLAVDEARLLEARATLDLRDSVVENVVTLQPILNAVHHATHASPLERDLLPYTEQRDATATKVASLCADLDSAWGRLAELETESLRATQRNMELASEVLRLAAGTNDKTPSQLEGGRLEMELAGHEAEMKSNRRRWRIMKGAASAIVAGSGADWVRDERARDLVLDLPD |  | 0.46 | 1.2 | 
7 | full-length T. terrestris CENP-H (thCENP-H) W213A (protein) MAATASTATPTPLPHFTEREASVLALYDRLRQLQLELALLTSQRSHGVIETSASRRAENDLAVDEARLLEARATLDLRDSVVENVVTLQPILNAVHHATHASPLERDLLPYTEQRDATATKVASLCADLDSAWGRLAELETESLRATQRNMELASEVLRLAAGTNDKTPSQLEGGRLEMELAGHEAEMKSNRRRWRIMKGAASAIVAGSGIDAVRDERLRDLVLDLPD | 0.97 |  | 1.2 | 
8 | full-length T. terrestris CENP-H (thCENP-H) L224A (protein) MAATASTATPTPLPHFTEREASVLALYDRLRQLQLELALLTSQRSHGVIETSASRRAENDLAVDEARLLEARATLDLRDSVVENVVTLQPILNAVHHATHASPLERDLLPYTEQRDATATKVASLCADLDSAWGRLAELETESLRATQRNMELASEVLRLAAGTNDKTPSQLEGGRLEMELAGHEAEMKSNRRRWRIMKGAASAIVAGSGIDWVRDERLRDLVADLPD |  | 1.1 | 0.36 | 
9 | full-length T. terrestris CENP-H (thCENP-H) I211A (protein) MAATASTATPTPLPHFTEREASVLALYDRLRQLQLELALLTSQRSHGVIETSASRRAENDLAVDEARLLEARATLDLRDSVVENVVTLQPILNAVHHATHASPLERDLLPYTEQRDATATKVASLCADLDSAWGRLAELETESLRATQRNMELASEVLRLAAGTNDKTPSQLEGGRLEMELAGHEAEMKSNRRRWRIMKGAASAIVAGSGADWVRDERLRDLVLDLPD | 0.95 | 0.7 | 1.2 | 
10 | full-length T. terrestris CENP-H (thCENP-H) R220E; L224A (protein) MAATASTATPTPLPHFTEREASVLALYDRLRQLQLELALLTSQRSHGVIETSASRRAENDLAVDEARLLEARATLDLRDSVVENVVTLQPILNAVHHATHASPLERDLLPYTEQRDATATKVASLCADLDSAWGRLAELETESLRATQRNMELASEVLRLAAGTNDKTPSQLEGGRLEMELAGHEAEMKSNRRRWRIMKGAASAIVAGSGIDWVRDERLEDLVADLPD |  | 1.1 | 0.13 | 
11 | full-length T. terrestris CENP-H (thCENP-H) I205A; L219A (protein) MAATASTATPTPLPHFTEREASVLALYDRLRQLQLELALLTSQRSHGVIETSASRRAENDLAVDEARLLEARATLDLRDSVVENVVTLQPILNAVHHATHASPLERDLLPYTEQRDATATKVASLCADLDSAWGRLAELETESLRATQRNMELASEVLRLAAGTNDKTPSQLEGGRLEMELAGHEAEMKSNRRRWRIMKGAASAAVAGSGIDWVRDERARDLVLDLPD | 0.9 | 0.36 | 1.1 | 
12 | full-length T. terrestris CENP-H (thCENP-H) R220E (protein) MAATASTATPTPLPHFTEREASVLALYDRLRQLQLELALLTSQRSHGVIETSASRRAENDLAVDEARLLEARATLDLRDSVVENVVTLQPILNAVHHATHASPLERDLLPYTEQRDATATKVASLCADLDSAWGRLAELETESLRATQRNMELASEVLRLAAGTNDKTPSQLEGGRLEMELAGHEAEMKSNRRRWRIMKGAASAIVAGSGIDWVRDERLEDLVLDLPD | 0.97 | 1.1 | 0.32 | 
13 | full-length T. terrestris CENP-H (thCENP-H) I205A; I211A (protein) MAATASTATPTPLPHFTEREASVLALYDRLRQLQLELALLTSQRSHGVIETSASRRAENDLAVDEARLLEARATLDLRDSVVENVVTLQPILNAVHHATHASPLERDLLPYTEQRDATATKVASLCADLDSAWGRLAELETESLRATQRNMELASEVLRLAAGTNDKTPSQLEGGRLEMELAGHEAEMKSNRRRWRIMKGAASAAVAGSGADWVRDERLRDLVLDLPD | 0.88 | 0.33 | 1.1 | 
14 | full-length T. terrestris CENP-H (thCENP-H) I205A (protein) MAATASTATPTPLPHFTEREASVLALYDRLRQLQLELALLTSQRSHGVIETSASRRAENDLAVDEARLLEARATLDLRDSVVENVVTLQPILNAVHHATHASPLERDLLPYTEQRDATATKVASLCADLDSAWGRLAELETESLRATQRNMELASEVLRLAAGTNDKTPSQLEGGRLEMELAGHEAEMKSNRRRWRIMKGAASAAVAGSGIDWVRDERLRDLVLDLPD | 0.94 | 0.65 | 1.1 | 
